Test results as given in PMC3205837.

How the values were obtained:
Experiment in all cases: EMSA
GST-γ-tubulin = GST-γ-tubulin (human, UniProt P23258 1-451)
GST-N-γtubulin1-333 = GST-N-γtubulin1-333 (human, UniProt P23258 1-333)
GST-γ-tubulin;His-E2F1 = GST-γ-tubulin;His-E2F1 (human;human, UniProt P23258;Q01094 1-451;1-437, |)
Chain of GST-γ-tubulin;His-E2F1 (P23258 whole entry, chain 1 of 2): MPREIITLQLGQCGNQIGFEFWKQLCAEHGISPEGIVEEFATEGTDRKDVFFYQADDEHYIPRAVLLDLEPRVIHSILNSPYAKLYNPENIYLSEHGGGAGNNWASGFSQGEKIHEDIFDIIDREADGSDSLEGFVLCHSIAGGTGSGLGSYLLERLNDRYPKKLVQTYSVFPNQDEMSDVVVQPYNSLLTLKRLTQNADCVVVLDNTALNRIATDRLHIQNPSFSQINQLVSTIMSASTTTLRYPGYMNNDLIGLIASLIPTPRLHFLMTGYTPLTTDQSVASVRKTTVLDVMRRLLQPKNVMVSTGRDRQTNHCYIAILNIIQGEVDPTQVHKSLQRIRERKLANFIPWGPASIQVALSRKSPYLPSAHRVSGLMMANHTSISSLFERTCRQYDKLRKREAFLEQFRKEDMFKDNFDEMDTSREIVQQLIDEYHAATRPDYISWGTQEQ
Chain of GST-γ-tubulin;His-E2F1 (Q01094 whole entry, chain 2 of 2): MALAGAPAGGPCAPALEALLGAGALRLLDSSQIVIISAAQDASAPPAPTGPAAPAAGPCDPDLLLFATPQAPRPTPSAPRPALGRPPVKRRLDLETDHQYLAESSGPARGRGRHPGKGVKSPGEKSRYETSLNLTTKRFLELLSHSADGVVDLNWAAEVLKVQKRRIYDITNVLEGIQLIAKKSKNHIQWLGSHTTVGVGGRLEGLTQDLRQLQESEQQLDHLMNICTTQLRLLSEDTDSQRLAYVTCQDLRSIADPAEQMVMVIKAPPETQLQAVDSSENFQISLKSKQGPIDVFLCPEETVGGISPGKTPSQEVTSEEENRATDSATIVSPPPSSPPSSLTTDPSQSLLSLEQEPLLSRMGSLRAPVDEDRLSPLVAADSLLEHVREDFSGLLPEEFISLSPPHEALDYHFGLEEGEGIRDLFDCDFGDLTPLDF

Chain of GST-γ-tubulin (P23258 whole entry): as the sequence (P23258 whole entry, chain 1 of 2) above
Chain of GST-N-γtubulin1-333 (P23258 1-333): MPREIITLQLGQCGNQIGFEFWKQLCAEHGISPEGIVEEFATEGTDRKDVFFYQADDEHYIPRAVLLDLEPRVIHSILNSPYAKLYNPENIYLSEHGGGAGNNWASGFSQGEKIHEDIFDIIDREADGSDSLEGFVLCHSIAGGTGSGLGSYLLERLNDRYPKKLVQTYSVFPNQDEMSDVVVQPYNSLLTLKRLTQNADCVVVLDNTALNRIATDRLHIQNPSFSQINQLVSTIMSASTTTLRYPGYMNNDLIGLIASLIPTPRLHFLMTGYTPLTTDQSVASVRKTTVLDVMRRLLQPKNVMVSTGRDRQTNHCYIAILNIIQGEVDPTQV

B1: DHFR promoter E2F site, wild type (dsDNA)
DNA 1: AGCTTCTAGTGCAATTTCGCGCCAAACTTGG
DNA 2: AATTCCAAGTTTGGCGCGAAATTGCACTAGA
B1: binds (GST-γ-tubulin); no binding (GST-N-γtubulin1-333); binds (GST-γ-tubulin;His-E2F1).
